Measurements taken from patent US20220119490A1 (Genentech, published 2022).
Changes are numbered by the printed parent chain.

Columns and labels:
[1] = molecular target: T1, PTPRD E406K variant extracellular domain (human, UniProt P23468 21-1265); assay: extracellular interaction screen: pentameric PTPRD variant ECD on ECD-Fc prey (FIG. 5L)
T1 construct: extracellular domain; also called FN1 mutant
T1 sequence (looked up): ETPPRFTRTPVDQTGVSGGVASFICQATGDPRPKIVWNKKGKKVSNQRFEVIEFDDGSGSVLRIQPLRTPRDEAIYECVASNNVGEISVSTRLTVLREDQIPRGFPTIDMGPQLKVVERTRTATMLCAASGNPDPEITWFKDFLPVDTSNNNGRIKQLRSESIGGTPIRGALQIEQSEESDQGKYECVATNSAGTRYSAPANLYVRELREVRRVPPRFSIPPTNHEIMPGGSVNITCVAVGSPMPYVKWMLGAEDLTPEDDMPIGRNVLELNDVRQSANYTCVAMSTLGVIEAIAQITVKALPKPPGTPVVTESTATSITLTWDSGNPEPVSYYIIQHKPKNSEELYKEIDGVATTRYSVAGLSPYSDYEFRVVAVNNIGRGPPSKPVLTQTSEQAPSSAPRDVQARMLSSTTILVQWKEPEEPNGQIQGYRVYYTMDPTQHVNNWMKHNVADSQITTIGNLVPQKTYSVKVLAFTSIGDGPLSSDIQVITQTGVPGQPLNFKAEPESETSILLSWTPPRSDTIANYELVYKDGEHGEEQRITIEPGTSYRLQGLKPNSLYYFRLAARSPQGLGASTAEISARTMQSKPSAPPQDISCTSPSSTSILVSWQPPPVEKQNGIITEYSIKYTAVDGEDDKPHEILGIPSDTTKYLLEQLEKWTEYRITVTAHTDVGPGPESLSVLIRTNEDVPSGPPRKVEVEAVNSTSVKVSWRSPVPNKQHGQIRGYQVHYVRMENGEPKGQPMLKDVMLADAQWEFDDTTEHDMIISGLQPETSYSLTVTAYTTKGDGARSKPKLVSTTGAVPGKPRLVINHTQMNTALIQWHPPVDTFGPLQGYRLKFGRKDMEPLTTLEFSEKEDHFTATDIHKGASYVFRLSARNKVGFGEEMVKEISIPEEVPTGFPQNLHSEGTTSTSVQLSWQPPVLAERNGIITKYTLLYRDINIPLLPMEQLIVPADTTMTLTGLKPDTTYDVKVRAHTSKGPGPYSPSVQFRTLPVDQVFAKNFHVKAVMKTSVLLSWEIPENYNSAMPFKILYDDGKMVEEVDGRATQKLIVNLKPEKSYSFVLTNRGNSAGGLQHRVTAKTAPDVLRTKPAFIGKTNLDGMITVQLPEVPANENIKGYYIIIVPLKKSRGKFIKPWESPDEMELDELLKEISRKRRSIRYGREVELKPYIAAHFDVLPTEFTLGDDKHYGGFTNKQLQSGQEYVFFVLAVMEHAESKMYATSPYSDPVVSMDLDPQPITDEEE

[2] = molecular target: T2, PTPRD R561Q variant extracellular domain (human, UniProt P23468 21-1265); assay: as above
T2 construct: extracellular domain; also called FN3 mutant
T2 sequence (looked up): T1 sequence (looked up) with K386E, R541Q

- binding result [1]: no binding
- binding result [2]: no binding
B1: LRRC4B extracellular domain (receptor, human, UniProt Q9NT99 36-576, looked up)
chain: AGGGGVAVTSAAGGGSPPATSCPVACSCSNQASRVICTRRDLAEVPASIPVNTRYLNLQENGIQVIRTDTFKHLRHLEILQLSKNLVRKIEVGAFNGLPSLNTLELFDNRLTTVPTQAFEYLSKLRELWLRNNPIESIPSYAFNRVPSLRRLDLGELKRLEYISEAAFEGLVNLRYLNLGMCNLKDIPNLTALVRLEELELSGNRLDLIRPGSFQGLTSLRKLWLMHAQVATIERNAFDDLKSLEELNLSHNNLMSLPHDLFTPLHRLERVHLNHNPWHCNCDVLWLSWWLKETVPSNTTCCARCHAPAGLKGRYIGELDQSHFTCYAPVIVEPPTDLNVTEGMAAELKCRTGTSMTSVNWLTPNGTLMTHGSYRVRISVLHDGTLNFTNVTVQDTGQYTCMVTNSAGNTTASATLNVSAVDPVAAGGTGSGGGGPGGSGGVGGGSGGYTYFTTVTVETLETQPGEEALQPRGTEKEPPGPTTDGVWGGGRPGDAAGPASSSTTAPAPRSSRPTEKAFTVPITDVTENALKDLDDVMKTTK
notes: extracellular domain; ECD-Fc prey; also called NGL-3; netrin-G ligand-3
